Measured values published in patent US20210347873A1 (SHANGHAI PHARMAEXPLORER, published 2021).

T1: human APRIL protein (human, UniProt O75888 105-250, limits assumed)
T1 construct: Bought protein; also called recombinant APRIL protein
T1 sequence (looked up): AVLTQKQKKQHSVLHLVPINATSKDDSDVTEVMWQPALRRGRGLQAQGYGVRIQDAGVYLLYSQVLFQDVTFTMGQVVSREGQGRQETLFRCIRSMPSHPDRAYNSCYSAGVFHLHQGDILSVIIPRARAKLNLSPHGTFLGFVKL


Columns and labels:
human APRIL protein [1] = molecular target: T1, human APRIL protein; experiment: ELISA, coated APRIL; antibody 13.3 nM
Procedure: (§1) To test whether the BLyS antibody cross-reacted with human APRIL protein, APRIL protein (purchased from R & D Systems) was first diluted to a final concentration of 1.0 μg/mL with PBS, and then 50 μL of which per well was aliquoted into a 96-well ELISA plate, and the plate was subsequently sealed with plastic film and incubated at 4° C. overnight. On the next day the plate was rinsed four times with the plate washing buffer [PBS buffer containing 0.0500 (v/v) Tween20] and a blocking solution [PBS buffer containing 0.05 (v/v) Tween20 and 1 (w/w) BSA] was added, then the protein was blocked at 37° C. for 2 hours. The blocking solution was removed and 100 μL per well of the lead antibodies prepared in Embodiment 1 and 2 were added in. After incubation for 1 hour at 37° C., the plate was rinsed four times with the plate washing buffer [PBS buffer containing 0.05 (v/v) Tween20]. HRP-labeled (horseradish peroxidase) secondary antibody (purchased from Sigma) was added in and incubated at 37° C. for 1 hour. The plate was then rinsed four times with the plate washing buffer [PBS buffer containing 0.050 (v/v) Tween20]. 100 μL of TMB substrate was aliquoted into each well and after incubation at room temperature for 5 minutes, 100 μL of stop solution (1.0 N HCl) was aliquoted into each well. A₄₅₀ₙₘ values were read via an ELISA plate reader (SpectraMax M5e purchased from Molecular Devices) and the results were shown in FIGS. 6A-6B and Table 11. […] As used herein, the IgG control is human IgG and the data in the table is GD number at 450 nm.

human APRIL protein [2] = molecular target: T1, human APRIL protein; experiment: ELISA, coated APRIL; antibody 2.67 nM
Procedure: as §1

human APRIL protein [3] = molecular target: T1, human APRIL protein; experiment: ELISA, coated APRIL; antibody 66.7 nM
Procedure: as §1

human APRIL protein [4] = molecular target: T1, human APRIL protein; experiment: ELISA, coated APRIL; antibody 0.107 nM
Procedure: as §1

human APRIL protein [5] = molecular target: T1, human APRIL protein; experiment: ELISA, coated APRIL; antibody 0.534 nM
Procedure: as §1

human APRIL protein [6] = molecular target: T1, human APRIL protein; experiment: ELISA, coated APRIL; antibody 0.0213 nM
Procedure: as §1

human APRIL protein [7] = molecular target: T1, human APRIL protein; experiment: ELISA, coated APRIL; antibody 0.00427 nM
Procedure: as §1

human APRIL protein [8] = molecular target: T1, human APRIL protein; experiment: ELISA, coated APRIL; antibody 0 nM (blank)
Procedure: as §1

[9] = molecular target: T2, extracellular domain of human BLyS protein (hBLyS-ECD), His-tagged, Ala134-Leu285 (human, UniProt Q9Y275 134-285); experiment: SPR (Biacore), antibody captured by anti-human Fc, hBLyS-ECD as analyte
T2 construct: Expressed in HEK293 cells and purified on a Ni column; also called immunogen

[10] = molecular target: His-tagged extracellular domain of human BLyS protein (hBLyS-ECD), Ala134-Leu285 (human, UniProt Q9Y275 134-285); experiment: cell-based or functional assay

OD450 nm (human APRIL protein [1]) | OD450 nm (human APRIL protein [2]) | OD450 nm (human APRIL protein [3]) | OD450 nm (human APRIL protein [4]) | OD450 nm (human APRIL protein [5]) | OD450 nm (human APRIL protein [6]) | OD450 nm (human APRIL protein [7]) | OD450 nm (human APRIL protein [8]) | Kd [9] | koff [9] | kon [9] | Binder | other results
0.257 | 0.0775 | 0.942 | 0.0543 | 0.0611 | 0.0546 | 0.0535 | 0.055 |  |  |  | 20D1B6E9E5 (antibody, V domains shown) VH: EVQLQQSVAELVRPGASVKLSCTASDFNIKNTYIHWVKQRPEQGLEWIGRIDPVNGNTKYAPKFQDKATIIVDTYSNTAYLQLSSLASEDTAVYYCARWPITTIVATDWYFDVWGTGTTVTVSS VL: DVLMTQTQLALPVRLGEQASISCRSSQSIVNSNGNTYLEWYLQKPGQSPKLLIYKVSNRFSGVPDRFSGSGSGTDFTLKISRVEAEDLGVYYCFQGSHVPWTFGGGTKLEIK | 
 |  |  |  |  |  |  |  | 642 pM | 0.000211 s⁻¹ | 329000 M⁻¹ s⁻¹ | c20D1B6E9E5 (antibody, V domains shown) VH: EVQLQQSVAELVRPGASVKLSCTASDFNIKNTYIHWVKQRPEQGLEWIGRIDPVNGNTKYAPKFQDKATIIVDTYSNTAYLQLSSLASEDTAVYYCARWPITTIVATDWYFDVWGTGTTVTVSS VL: DVLMTQTQLALPVRLGEQASISCRSSQSIVNSNGNTYLEWYLQKPGQSPKLLIYKVSNRFSGVPDRFSGSGSGTDFTLKISRVEAEDLGVYYCFQGSHVPWTFGGGTKLEIK | 
0.116 | 0.0703 | 0.464 | 0.0558 | 0.0599 | 0.0565 | 0.0571 | 0.0551 |  |  |  | 8E7D9C7F5 (antibody, V domains shown) VH: QVQLQQSGVELARPGASVKLSCKASGYTFTSYGISWVKQRTGQALEWIGEIYPRSGNTYYNEKFKGKATLTADKSSSTAYMELRSLTSEDSAVYFCARSGPITTLVATDYGMDYWGQGTSVTVSS VL: DIVLTQSPASLAVSLGQRATISCRASKSVSTSSYSYMHWYQQKPGQPPKLLIKFASNLESGVPARFSGSGSGTDFTLNIHPVEEEDAATYYCQHSREFPYTFGGGTKLEIK | 
 |  |  |  |  |  |  |  |  |  |  | mouse-human chimeric BLyS antibody c97A3C2H4 (antibody, human IgG1, V domains shown) VH: EVKLVESGGGLVQPGGSLKLSCAASGFTFSTYTMSWVRQTPEKRLEWVAYISYGGGSTSYPDTVKGRFTISRDNAKNTLYLQMSSLKSEDTAIYYCTRHVTVVENSMDYWGQGTSVTVSS VL: DILLTQSPDILSVSPGERVSFSCRASQSIGTSIHWYQQRTNGSPRLLIKYVSESFSGTPSRFSGSGSGTAFTLTINSVESEDIADYYCQQTHSWPWTFGGGTKLEIK | mouse B lymphocyte proliferation stimulated by hBLyS-ECD (viable cell signal) at 0 nM antibody [10]: 3450 OD450 nm (as headed); mouse B lymphocyte proliferation stimulated by hBLyS-ECD (viable cell signal) at 0.000256 nM antibody [10]: 3110 OD450 nm (as headed); mouse B lymphocyte proliferation stimulated by hBLyS-ECD (viable cell signal) at 0.00128 nM antibody [10]: 2900 OD450 nm (as headed); mouse B lymphocyte proliferation stimulated by hBLyS-ECD (viable cell signal) at 0.0064 nM antibody [10]: 3050 OD450 nm (as headed); mouse B lymphocyte proliferation stimulated by hBLyS-ECD (viable cell signal) at 0.032 nM antibody [10]: 2960 OD450 nm (as headed); mouse B lymphocyte proliferation stimulated by hBLyS-ECD (viable cell signal) at 0.16 nM antibody [10]: 2890 OD450 nm (as headed); mouse B lymphocyte proliferation stimulated by hBLyS-ECD (viable cell signal) at 0.8 nM antibody [10]: 429 OD450 nm (as headed); mouse B lymphocyte proliferation stimulated by hBLyS-ECD (viable cell signal) at 4 nM antibody [10]: 223 OD450 nm (as headed); mouse B lymphocyte proliferation stimulated by hBLyS-ECD (viable cell signal) at 20 nM antibody [10]: 159 OD450 nm (as headed); mouse B lymphocyte proliferation stimulated by hBLyS-ECD (viable cell signal) at 100 nM antibody [10]: 169 OD450 nm (as headed)
0.171 | 0.0746 | 0.57 | 0.0551 | 0.0584 | 0.0568 | 0.0546 | 0.0568 |  |  |  | 93C6F10D3 (antibody, V domains shown) VH: EVQLVESGGGLVTPGGSLKLSCVASGFAFSTYGMSWVRQTPERRLEWVAYISGGGGSIYYPDSVKGRFTISRDNAKNILYLQMSSLKSEDTAMYHCTRHPDLLLRYDYALDHWGQGTSVTVSS VL: DIQMTQSPASLSASVGETVTITCRASENIHIYLAWYQQKQGKSPQLLVYNGKTLADGVPSRFSGSGSGTQYSLKINTLQPEDFGNYYCQHFWNSTWTFGGGTKLEIK | 
 |  |  |  |  |  |  |  | 85.7 pM | 1.82e-05 s⁻¹ | 213000 M⁻¹ s⁻¹ | c89A2G5E7 (antibody, V domains shown) VH: QVQLKESGPGLVAPSQSLSITCTVSGLSLNSHDISWIRQPPGKGLEWLGVIWSGGGTKYNSAFMSRLSISKDNSKSQVFLKMNSLHTDDTAIYYCVRTPSMITYSAMDYWGQGTSVTVSS VL: EIVLTQSPALMAASPGEKVTITCSVSSSISSRNLHWYQQKSQTSPKAWIHATSNLASGVPVRFSGSGSGTSYSLTISSMEAEDAATYYCQQWSSYPLTFGSGTKLEIK | 
0.182 | 0.0707 | 0.62 | 0.0705 | 0.0556 | 0.0537 | 0.0535 | 0.0533 |  |  |  | 97E7B3F2 (antibody, V domains shown) VH: EVQLQQSGPELVKSGASVKISCKASGYTFTDHKMHWVKQSHGKSLEWIGYISPYNGGTGYNQKFKSKVTLTVDISSSTAYMELRSLTSEDSAVYYCARWGFYDVMDSWGQGTSVTVSS VL: DVLLTQTPLSLPVSLGDQASISCRSSQTIVHIIGDTYLEWYLQKPGQSPKLLIYKVSNRFSGVPDRFSGSGAGTDFTLKISRVEAEDLGVYYCFQGSHVPRTFGGGTKLEIK | 
 |  |  |  |  |  |  |  | 147 pM | 4.89e-05 s⁻¹ | 334000 M⁻¹ s⁻¹ | c97E7B3F2 (antibody, V domains shown) VH: EVQLQQSGPELVKSGASVKISCKASGYTFTDHKMHWVKQSHGKSLEWIGYISPYNGGTGYNQKFKSKVTLTVDISSSTAYMELRSLTSEDSAVYYCARWGFYDVMDSWGQGTSVTVSS VL: DVLLTQTPLSLPVSLGDQASISCRSSQTIVHIIGDTYLEWYLQKPGQSPKLLIYKVSNRFSGVPDRFSGSGAGTDFTLKISRVEAEDLGVYYCFQGSHVPRTFGGGTKLEIK | 
